As usually defined, the EC50 is the concentration giving half of the maximal effect. High values mean a need for much substance, low ones an effect from little substance. As a reminder, the Kd is the equilibrium constant for the complex coming apart. High values mean lower affinity, low ones higher affinity.

Holding throughout (details): both partners purified
One test deals with Stx2 toxin (Escherichia coli (STEC), strain not …, UniProt P09385;P09386). Kind of test: ELISA; […]; room temperature; in triplicate. On the technique in general: ELISA stands for enzyme-linked immunosorbent assay.
For test [1], the target named is T1, Shiga toxin 1 (Stx1) (Escherichia coli (STEC), strain not …, UniProt P08026;P69179).
T1 construct: source: bought: Tufts University School of Medicine; copies: 1 + 5
Nature of the test: ELISA; […]; room temperature; in triplicate.

The target in test [2] is T1, Shiga toxin 1 (Stx1). Nature of the test: SPR; […]; HBS-EP pH 7.4; 25 °C; 30 uL/min; […]; Langmuir 1:1 model; BIAcore T200; in duplicate. (In general: Surface plasmon resonance follows binding to a sensor surface in real time, without labels.)

T1 sequence (P69179 whole entry, looked up, chain 1 of 2): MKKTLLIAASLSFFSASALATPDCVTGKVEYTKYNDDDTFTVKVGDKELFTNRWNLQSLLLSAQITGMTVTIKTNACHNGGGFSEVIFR
T1 sequence (P08026 whole entry, looked up, chain 2 of 2): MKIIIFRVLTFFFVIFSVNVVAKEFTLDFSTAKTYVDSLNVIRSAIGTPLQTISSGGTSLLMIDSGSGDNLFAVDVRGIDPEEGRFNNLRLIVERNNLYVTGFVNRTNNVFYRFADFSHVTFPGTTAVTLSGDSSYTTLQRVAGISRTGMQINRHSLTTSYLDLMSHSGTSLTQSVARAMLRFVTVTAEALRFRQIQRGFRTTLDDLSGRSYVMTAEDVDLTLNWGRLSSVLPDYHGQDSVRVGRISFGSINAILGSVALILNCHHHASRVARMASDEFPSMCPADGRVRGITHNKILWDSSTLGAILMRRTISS
Chain of Stx2 toxin (P09386 whole entry, looked up, chain 1 of 2): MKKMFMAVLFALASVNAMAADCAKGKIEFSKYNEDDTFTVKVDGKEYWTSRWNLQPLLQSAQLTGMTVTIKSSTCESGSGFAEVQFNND
Chain of Stx2 toxin (P09385 whole entry, looked up, chain 2 of 2): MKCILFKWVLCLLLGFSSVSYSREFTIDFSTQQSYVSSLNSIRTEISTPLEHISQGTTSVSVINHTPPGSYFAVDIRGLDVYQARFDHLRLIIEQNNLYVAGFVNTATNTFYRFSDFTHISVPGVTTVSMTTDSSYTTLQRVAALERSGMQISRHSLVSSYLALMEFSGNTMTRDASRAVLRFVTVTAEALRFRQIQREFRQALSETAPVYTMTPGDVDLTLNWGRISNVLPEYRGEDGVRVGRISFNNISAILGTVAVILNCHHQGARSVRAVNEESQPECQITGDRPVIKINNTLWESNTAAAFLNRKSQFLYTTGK

B1: scFvStx1 (scFv, V domains shown)
VH: EVQLQQSGPELVKPGTSVKMSCKASGYTFTDYFIHWVKQSHGKSLEWIGYIYPKNDGNDYNQKFKGKATLTVDKSSSTGYMELRSLTSEDSAVYYCARSRGYYGALDYWGQGTSVTVSR
VL: DLQLTQSPATLSVNPGDSVSLSCRASQSIRNDLHWYQQKSHESPRLLIKSVSQSISGIPSRFSGSGSGTDFTLSINSVETEDFGMYFCQQSYSWPLTFGAGTK
notes: also called scFvStx1(II); new scFvStx1; source: E. coli BL21 (DE3) pLysS, periplasmic expression, purified (IMAC)
As for B1, the binding result with Stx2 toxin is “binds”. The concentration giving a half-maximal response (EC50) with Shiga toxin 1 (Stx1) [1] came out at 600 nM. Also, the Kd in the test with Shiga toxin 1 (Stx1) [2] came to 226 nM.

The values are drawn from paper PMC6698835 (Antibodies, 2018).
